Laboratory results taken from the DeepSol protein solubility set.

Experiment: soluble on expression in E. coli; label from the status in PepcDB or PDB records

Row | Sequence | soluble on expression in E. coli
1 | AHHHHHHGSGLFDKLKKAEVQKKVPSSLKSRIKEEPSEVELVPVEEEVLAKELVKPKVVYIKKIVISTHADLKRVSDELKSGNIVIVELTPLEQKPELLKKIAEQLMTTASIIGGDYAKICGSPLKVILTPPEIKIAKE | not soluble
2 | AHHHHHHGSIIIYTTFPTWESAEKVTKALLEERLVACANLREHKAFYWWQGKIEEDNEIGVILKTREDLWEEVKKRIKELHPYTVPAIIKINVEDVNEEYLKWLLEETKST | not soluble
3 | AHHHHHHGSITRGRVWKFGDNISTDAITPGRYNLTKDPNELAKIAFIEERPEFSKEVKPGDVVVGGKNFGIGSSRESAALALKAAGVGGVIAKSFGRIFFRNAVNLGLPLLIGNTDPLLDGEIVEVNWRSGEVKKEDGEVLKFKPLDSFLLAIVEEGGIIEYIRRRGDLWIQ | soluble
4 | AHHHHHHGSKEIVERVKTKTKIPVYERSVENVLSAVLASDDIWRIVDLSEEPLPLVVAILESLNELGYVTFEDGVKLTEKGEELVAEYGIGKRYDFTCPHCQGKTVDLQAFADLLEQFREIVKDRPEPLHEFDQAYVTPETTVARVILMHTRGDLENKDIFVLGDDDLTSIALMLSGLPKRIAVLDIDERLTKFIEKAANEIGYEDIEIFTFDLRKPLPDYALHKFDTFITDPPETLEAIRAFVGRGIATLKGPRCAGYFGITRRESSLDKWREIQKLLLNEFNVVITDIIRNFNEYVNWGYAEETRAWKLIPIKKLPEYNWYKSYMFRIETLEGSRGYEDEIPEEDIYNDEESSTT | soluble
5 | AHHHHHHGSKFNEFKTPQIDPIFDLYVAYGYVESLIRGGAKEATLIPHGASYLIQTDVSNEEFRHGLVDALSEMLSLHIALARHSPREGGKLVSDADFSAGANINNVYWDSVPRNLEKVMKDLEKKRSVKGTATIPITLMPSAGKYMLKHFGVQGGNPIKVDLLNYALAWVGFHYYTPYIKYAKGDTTWIHIYQIAPVEEVDMISILSLKDLKMHLPHYYESNLDFLINRRLALLYHLLHSESLGALELFTEKEFVIHSYTLERSGNNQAIRSFEEEEIGKLMDFLWKLKRRDFYHAIKFIDDLLKKATEGALALIDAIMNERLEGFYTALKLGKKAGVVSSREIVAALEDIICER | not soluble
6 | AHHHHHHGSKVEKGDVIRLHYTGKVKETGEIFDTTYEDVAKEARIYNPNGIYGPVPIAVGAGHVLPGLDKRLIGLEVKKKYVIEVPPEEGFGLRDPGKIKIIPLGKFRKSGIIPYPGLEIEVETENGRKMRGRVLTVSGGRVRVDFNHPLAGKTLVYEVEVVEKIEDPIEKIKALIELRLPMIDKDKVIIEISEKDVKLNFKDVDIDPKTLILGEILLESDLKFIGYEKVEFEPTIEELLKPKSAEEQESPNEEQQEESESKAEES | not soluble
7 | AHHHHHHGSLGRLARWLRLYGYDTLYGIEDDNEILRIAEEEGRIILTRDVELYRQAQVRNLRAILITSNSFEEQVKQLMMERVEFSELFPENARCPKCNGVIRSAKKEEVKGKVPENVYNSYNEFYICTSCGQIYWPGRQWREMLKMDKKIKANKL | soluble
8 | AHHHHHHGSPVYEINGIKPKIHPTAYVDENAVIIGDVVLEEKTSVWPSAVLRGDIERIYVGKYSNIQDNVSIHTSHGYPTEIGEYVTIGHNAVVHGAKIGNYVIIGMGAIILDGAKIGNHVIIGAGALVPPNKEIPDYSLVIGVPGKVVRQLSEEEIEWTKKNAEVYVELAEKHMKGRKKIMIYRIISHIPSIFFKPAYDLYERYLLEKVKAGVIPKHVAIIMDGNRRWARKREKPPWYGHFFGSKKLEEIVEWCHELGIRILTVYAFSTENFKRSKEEVDRLMKLFEEKFRELVTDRRVHEYGIRVNVMGRKELLPKNVREAAEEAERVTRKYNNYFLNIALAYGGRSEIVDAIKDIVNDVLEGRLKLEDINEEIVRKYLYVPNMPDPDIVIRTGGEVRISNFLLYQIAYSELFFVDVYFPEFRKIDFLRIIREFQKRERRFGR | soluble
9 | AHIVYDDVRDLKAIIQALLKLVDEALFDIKPEGIQLVAIDKAHISLIKIELPKEMFKEYDVPEEFKFGFNTQYMSKLLKAAKRKEEIIIDADSPEVVKLTLSGALNRVFNVNNIEVLPPEVPEVNLEFDIKATINASGLKNAIGEIAEVADTLLISGNEEKVVVKGEGENKVEVEFSKDTGSLADIEFNKESSSAYDVEYLNDIISLTKLSDYVKVAFADQKPMQLEFNMEGGGKVTYLLAPKLS | soluble
10 | AIAAYRGLHALSQPAYLEDFINSVSNLPQELRDKYGRMGELDALVQRLKNEADALVRELLRKPGSSDPDRGRDTTSLQQMGTKLEQLQAQCVKLNQEKLQLAETAYNTVDQHVRDLDTKLREYEAYLRREGQWPDDLQSLVVNTDHTKMASMKNAAAAAAAAHTAAAPATTARSTQKAPSKGQRKSGEPSTLHIMDDMPIDPNEPRYCYCQNVSYGQMVACESGDCPYEWFHFECVGLTEPPKGEWICPDCRARTGRVR | soluble
11 | AIAENSSKEDYKIQSFDLETQKLLKTALKDPGSVDLEKVSSVIVDQSLKDQVFSREAGRICYTIVQAEAKQTNGSVFRRNLLNRLQQEFKAREETRKRSTQEWVCLVSFICNIFDYLKVNNMPMVALVHPVYDCLFRLAQSDALKNEEEVDCLVLQLHRIGDQLEKMNVQLMDELFNLLRDGFLLQEDLSSMGRLLLLEILEFRAGGWKLSDTAQKYYYSEVTD | soluble
12 | AIAEPGSPAGAGAEAPAFYSERKLSRKQLKKLAKAEREYEEERRKELEAAQAVDTAQKRELARIESILRTHALRMEYVEPDGHCLFRALVRQLRPLIQSGLFDTYFPAADTETRSALLTWSTIPDEMEAVWLLRKTLASFIRRRGTEFFPFIVGELDPQGTLLDASDDPAERVAQYCARLEDGTLWGGQPELQAVALALRCRVFVFADPEILPNGMLVMGADDASTDTGAESVTALRVSFHKQFFSLGEHYHAVVPADDSRGDARDPRISAS | soluble
13 | AIAERSFVWLSCLDSDSCNLTFRLGEVESHACSPSLLWNLLTQYLPPGAGHILRTYNFPVLSCVSSCHLIGGKMPEN | soluble
14 | AIAKLTDSVLRSFRVAKVFRENSDKINCFDFSSNGETVISSSDDDSIVLYDCQEGKPKRTLYSKKYGVDLIRYTHAANTVVYSSNKIDDTIRYLSLHDNKYIRYFPGHNKRVVALSMSPVDDTFISGSLDKTIRLWDLRSPNCQGLMHLQGKPVCSFDPEGLIFAAGVNSEMVKLYDLRSFDKGPFATFKLQYERTCEWTGLKFSNDGKLILVSTNGGTLRVLDAFKGAVLHSFGGYNNSKGVILEAPFTPDSQFIMIGSEDGKIHVWNAESGMKVALLDGKHTGPVTCLQFNPKFMTFASACSNMAFWLPTIDD | soluble
15 | AIATLEKKEYGAPGFWPGSMIGRVHAFETPAPLTRAQLDRLRDEFFETRTEGHLEIWTAIRAASHAQEAGDDELAYAIITAVGILPAEVGPAGEGLGERIPFAEQPLDRLLGMICGCCFPAFTRYRTLERVYDQRGFLYETPKECIATPSNVLPDESTEASAR | soluble
16 | AIAYASETASTQGLPALELDPEELLAQVQLLRAAVEGSRRESRELVGALERERRLNLEMRQRFERQFAAVSDQLLQLNHLQKESEALLQSLQEQLNEAELQKNAAQRELACVQRQLSLARAEADAGKRVLTTIAEKEALLRKTSQANADLQQIVMHLQAELRNSELQPSTSNASEERLHEAEIPSLADRDAYQTLQQTIEKLSAERDMWYHECARAKEESLRLQQDAERLRGLLDEQQRVHTTTQTLLQDRHLLMRRIIAALAEKYLMEKLPNQHYTQEIDSSPFQARGGTSVQEAHKHERLRRARSF | soluble
17 | AIRVADLLQHITQMKCAEGYGFKEEYESFFEGQSAPWDSAKKDENRMKNRYGNIIAYDHSRVRLQTIEGDTNSDYINGNYIDGYHRPNHYIATQGPMQETIYDFWRMVWHENTASIIMVTNLVEVGRVKCCKYWPDDTEIYKDIKVTLIETELLAEYVIRTFAVEKRGVHEIREIRQFHFTGWPDHGVPYHATGLLGFVRQVKSKSPPSAGPLVVHCSAGAGRTGCFIVIDIMLDMAEREGVVDIYNCVRELRSRRVNMVQTEEQYVFIHDAILEACL | soluble
18 | AISGAKKYFYMQTPYFLPTEQILGAMQTAALAGVDIRLMLPEHADNRVTHLGSCSYLADVLRAGVKVYFYKKGFLHSKLMVSDDMLSTVGSTNLDFRSFEHNFEVNAFMYDMETALQMREIFLQDQRESTQIFLKSWEKRSSRQKAMESVVRLLAPLL | not soluble
19 | AKIDNAVLPEGSLVLVTGANGFVASHVVEQLLEHGYKVRGTARSASKLANLQKRWDAKYPGRFETAVVEDMLKQGAYDEVIKGAAGVAHIASVVSFSNKYDEVVTPAIGGTLNALRAAAATPSVKRFVLTSSTVSALIPKPNVEGIYLDEKSWNLESIDKAKTLPESDPQKSLWVYAASKTEAELAAWKFMDENKPHFTLNAVLPNYTIGTIFDPETQSGSTSGWMMSLFNGEVSPALALMPPQYYVSAVDIGLLHLGCLVLPQIERRRVYGTAGTFDWNTVLATFRKLYPSKTFPADFPDQGQDLSKFDTAPSLEILKSLGRPGWRSIEESIKDLVGSETA | soluble
20 | AKQAAQSTFNSFHEWAKQAEAMRNPSRMDIYKIYKQDAPHSHPMSDEQQEEFLHTLKALNGKNGIEVRTQDHDSVRNKKDRNLDKYIAESPDAKRFFYRIIPKHERREDKNQGRLTIGVQPQYATQLTRAMATLIGKESAITHGKVIGPACHGQMTDSAVLYINGDVAKAEKLGEKLKQMSGIPLDAFVEHTPLSMQSLSKGLSYAESILGDTRGHGMSRAEVISDALRMDGMPFLARLKLSLSANGYDPDNPALRNTK | soluble
21 | ALEGTEFARAQLSEAMTLASGLKTKVSDIFSQDGSCPANTAATAGIEKDTDINGKYVAKVTTGGTAAASGGCTIVATMKASDVATPLRGKTLTLTLGNADKGSYTWACTSNADNKYLPKTCQTATTTTP | soluble
22 | ALSAKLTLDKVDLKGKRVIMRVDFNVPMKNNQITNNQRIKAAIPSIKHCLDNGAKSVVLMSHLGRPDGIPMPDKYSLEPVADELKSLLNKDVIFLKDCVGPEVEQACANPDNGSIILLENLRFHVEEEGKGKDSSGKKISADPAKVEAFRASLSKLGDVYVNDAFGTAHRAHSSMVGVNLPQKASGFLMKKELDYFSKALEKPERPFLAILGGAKVKDKIQLIKNMLDKVNFMIIGGGMAYTFLKELKNMQIGASLFDEEGATIVKEIMEKAEKNGVKIVFPVDFVTGDKFDENAKVGQATIESGIPSGWMGLDCGPESIKINAQIVAQAKLIVWNGPIGVFEWDAFAKGTKALMDEVVKATSNGCVTIIGGGDTATCCAKWGTEDKVSHVSTGGGASLELLEGKILPGVEALSNM | soluble
23 | AMAKGVGVSNEKLDAVMRVVSEESGIALEELTDDSNFADMGIDSLSSMVIGSRFREDLGLDLGPEFSLFIDCTTVRALKDFMLGSGDAG | soluble
24 | AMEDELKILIGKMRYRSSFGQNALQHSKEVALLAGLIAEQLGGDKKLARRAGILHDIGKALTQELGRDHVNLGVEVCKRHKEDPVVINAIYAHHGHEEILSVECASVCAADALSAGRPGARRKSDEEYAKRMQALEEIALEFDGVEKAYAMESGRELRVIVKSNQ | not soluble
25 | AMGSATISRRGILVIRHGERVDQVFGKSWLQQCTTADGKYYRPDLNFPRSLPRRSNGIKDFENDPPLSSCGIFQARLAGEALLDSGVRVTAVFASPALRCVQTAKHILEELKLEKKLKIRVEPGIFEWMKWEASKATLTFLTLEELKEANFNVDLDYRPALPRCSLMPAESYDQYVERCAVSMGQIINTCPQDMGITLIVSHSSALDSCTRPLLGLPPRECGDFAQLVRKIPSLGMCFCEENREDGKWDLVNPPVKTLTHGANSVFNWRNWIS | soluble
